Data as given in patent publication US20230151095A1 (published 2023).

T1: XENP23311 (His-tagged NKG2D-Fc) (human, UniProt P26718 78-216)
T1 chain: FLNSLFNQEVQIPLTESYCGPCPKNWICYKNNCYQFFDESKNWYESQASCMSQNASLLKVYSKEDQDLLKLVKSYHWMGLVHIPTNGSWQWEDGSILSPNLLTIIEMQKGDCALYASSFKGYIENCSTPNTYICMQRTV


Molecular target: T1, XENP23311 (His-tagged NKG2D-Fc)
Test: Octet

Binder | Kd
XENP40888 (LB_1002, 2+1 VHVL) (antibody) chain 1: EVQLLESGGGLVQPGGSLRLSCAVSGFSLSSYGVIWVRQAPGKGLEYVSWVSSGGSTNYASSVKGRFTISRDTSKNTVYLQMNSLRAEDTAVYFCARGATNSGTDIWGPGTLVTVSSASTKGPSVFPLAPSSKSTSGGTAALGCLVKDYFPEPVTVSWNSGALTSGVHTFPAVLQSSGLYSLSSVVTVPSSSLGTQTYICNVNHKPSDTKVDKKVEPKSCDKTHTCPPCPAPELLGGPSVFLFPPKPKDTLMISRTPEVTCVVVDVSHEDPEVKFNWYVDGVEVHNAKTKPREEEYNSTYRVVSVLTVLHQDWLNGKEYKCKVSNKALPAPIEKTISKAKGQPREPQVYTLPPSREEMTKNQVSLTCDVSGFYPSDIAVEWESDGQPENNYKTTPPVLDSDGSFFLYSKLTVDKSRWEQGDVFSCSVMHEALHNHYTQKSLSLSPGK chain 2: EVQLLESGGGLVQPGGSLRLSCAVSGFSLSSYGVIWVRQAPGKGLEYVSWVSSGGSTNYASSVKGRFTISRDTSKNTVYLQMNSLRAEDTAVYFCARGATNSGTDIWGPGTLVTVSSASTKGPSVFPLAPSSKSTSGGTAALGCLVKDYFPEPVTVSWNSGALTSGVHTFPAVLQSSGLYSLSSVVTVPSSSLGTQTYICNVNHKPSNTKVDKKVEPKSCGGGGSGGGGSEVQLVESGGGLVKPGGSLRLSCAASGFTFSSYSMNWVRQAPGKGLEWVSSISSSSSYIYYADSVKGRFTISRDNAKNSLYLQMNSLRAEDTAVYYCARGAPMGAAAGWFDPWGQGTLVTVSSGKPGSGKPGSGKPGSGKPGSDIQMTQSPSSVSASVGDRVTITCRASQGISSWLAWYQQKPGKAPKLLIYAASSLQSGVPSRFSGSGSGTDFTLTISSLQPEDFATYYCQQGVSFPRTFGGGTKVEIKGGGGSGGGGSKTHTCPPCPAPELLGGPSVFLFPPKPKDTLMISRTPEVTCVVVDVSHEDPEVKFNWYVDGVEVHNAKTKPREEQYNSTYRVVSVLTVLHQDWLNGKEYKCKVSNKALPAPIEKTISKAKGQPREPQVYTLPPSREQMTKNQVKLTCLVKGFYPSDIAVEWESNGQPENNYKTTPPVLDSDGSFFLYSKLTVDKSRWQQGNVFSCSVMHEALHNHYTQKSLSLSPGK chain 3: DIVMTQSPSSLSASVGDRVTITCRASQSINSWLSWYQQKPGKPPKLLIYGASNLASGVPSRFKGSGSGTDFTLTISSLQPEDFATYYCQNNYGIIAAGATFGGGTKVEIKRTVAAPSVFIFPPSDEQLKSGTASVVCLLNNFYPREAKVQWKVDNALQSGNSQESVTEQDSKDSTYSLSSTLTLSKADYEKHKVYACEVTHQGLSSPVTKSFNRGEC | 158 nM
XENP40552 (LB_1001, mAb-scFv VHVL) (antibody) chain 1: EVQLLESGGGLVQPGGSLRLSCAVSGFSLSSYGVIWVRQAPGKGLEYVSWVSSGGSTNYASSVKGRFTISRDTSKNTVYLQMNSLRAEDTAVYFCARGATNSGTDIWGPGTLVTVSSASTKGPSVFPLAPSSKSTSGGTAALGCLVKDYFPEPVTVSWNSGALTSGVHTFPAVLQSSGLYSLSSVVTVPSSSLGTQTYICNVNHKPSDTKVDKKVEPKSCDKTHTCPPCPAPELLGGPSVFLFPPKPKDTLMISRTPEVTCVVVDVSHEDPEVKFNWYVDGVEVHNAKTKPREEEYNSTYRVVSVLTVLHQDWLNGKEYKCKVSNKALPAPIEKTISKAKGQPREPQVYTLPPSREEMTKNQVSLTCDVSGFYPSDIAVEWESDGQPENNYKTTPPVLDSDGSFFLYSKLTVDKSRWEQGDVFSCSVMHEALHNHYTQKSLSLSPGK chain 2: not shown chain 3: DIVMTQSPSSLSASVGDRVTITCRASQSINSWLSWYQQKPGKPPKLLIYGASNLASGVPSRFKGSGSGTDFTLTISSLQPEDFATYYCQNNYGIIAAGATFGGGTKVEIKRTVAAPSVFIFPPSDEQLKSGTASVVCLLNNFYPREAKVQWKVDNALQSGNSQESVTEQDSKDSTYSLSSTLTLSKADYEKHKVYACEVTHQGLSSPVTKSFNRGEC | 95.1 nM
XENP41338 (LB_1002, 2+1 VLVH) (antibody) chain 1: EVQLLESGGGLVQPGGSLRLSCAVSGFSLSSYGVIWVRQAPGKGLEYVSWVSSGGSTNYASSVKGRFTISRDTSKNTVYLQMNSLRAEDTAVYFCARGATNSGTDIWGPGTLVTVSSASTKGPSVFPLAPSSKSTSGGTAALGCLVKDYFPEPVTVSWNSGALTSGVHTFPAVLQSSGLYSLSSVVTVPSSSLGTQTYICNVNHKPSDTKVDKKVEPKSCDKTHTCPPCPAPELLGGPSVFLFPPKPKDTLMISRTPEVTCVVVDVSHEDPEVKFNWYVDGVEVHNAKTKPREEEYNSTYRVVSVLTVLHQDWLNGKEYKCKVSNKALPAPIEKTISKAKGQPREPQVYTLPPSREEMTKNQVSLTCDVSGFYPSDIAVEWESDGQPENNYKTTPPVLDSDGSFFLYSKLTVDKSRWEQGDVFSCSVMHEALHNHYTQKSLSLSPGK chain 2: EVQLLESGGGLVQPGGSLRLSCAVSGFSLSSYGVIWVRQAPGKGLEYVSWVSSGGSTNYASSVKGRFTISRDTSKNTVYLQMNSLRAEDTAVYFCARGATNSGTDIWGPGTLVTVSSASTKGPSVFPLAPSSKSTSGGTAALGCLVKDYFPEPVTVSWNSGALTSGVHTFPAVLQSSGLYSLSSVVTVPSSSLGTQTYICNVNHKPSNTKVDKKVEPKSCGGGGSGGGGSDIQMTQSPSSVSASVGDRVTITCRASQGISSWLAWYQQKPGKAPKLLIYAASSLQSGVPSRFSGSGSGTDFTLTISSLQPEDFATYYCQQGVSFPRTFGGGTKVEIKGKPGSGKPGSGKPGSGKPGSEVQLVESGGGLVKPGGSLRLSCAASGFTFSSYSMNWVRQAPGKGLEWVSSISSSSSYIYYADSVKGRFTISRDNAKNSLYLQMNSLRAEDTAVYYCARGAPMGAAAGWFDPWGQGTLVTVSSGGGGSGGGGSKTHTCPPCPAPELLGGPSVFLFPPKPKDTLMISRTPEVTCVVVDVSHEDPEVKFNWYVDGVEVHNAKTKPREEQYNSTYRVVSVLTVLHQDWLNGKEYKCKVSNKALPAPIEKTISKAKGQPREPQVYTLPPSREQMTKNQVKLTCLVKGFYPSDIAVEWESNGQPENNYKTTPPVLDSDGSFFLYSKLTVDKSRWQQGNVFSCSVMHEALHNHYTQKSLSLSPGK chain 3: DIVMTQSPSSLSASVGDRVTITCRASQSINSWLSWYQQKPGKPPKLLIYGASNLASGVPSRFKGSGSGTDFTLTISSLQPEDFATYYCQNNYGIIAAGATFGGGTKVEIKRTVAAPSVFIFPPSDEQLKSGTASVVCLLNNFYPREAKVQWKVDNALQSGNSQESVTEQDSKDSTYSLSSTLTLSKADYEKHKVYACEVTHQGLSSPVTKSFNRGEC | 630 nM
XENP41343 (1D2B4, mAb-scFv VLVH) (antibody) chain 1: EVQLLESGGGLVQPGGSLRLSCAVSGFSLSSYGVIWVRQAPGKGLEYVSWVSSGGSTNYASSVKGRFTISRDTSKNTVYLQMNSLRAEDTAVYFCARGATNSGTDIWGPGTLVTVSSASTKGPSVFPLAPSSKSTSGGTAALGCLVKDYFPEPVTVSWNSGALTSGVHTFPAVLQSSGLYSLSSVVTVPSSSLGTQTYICNVNHKPSDTKVDKKVEPKSCDKTHTCPPCPAPELLGGPSVFLFPPKPKDTLMISRTPEVTCVVVDVSHEDPEVKFNWYVDGVEVHNAKTKPREEEYNSTYRVVSVLTVLHQDWLNGKEYKCKVSNKALPAPIEKTISKAKGQPREPQVYTLPPSREEMTKNQVSLTCDVSGFYPSDIAVEWESDGQPENNYKTTPPVLDSDGSFFLYSKLTVDKSRWEQGDVFSCSVMHEALHNHYTQKSLSLSPGK chain 2: not shown chain 3: DIVMTQSPSSLSASVGDRVTITCRASQSINSWLSWYQQKPGKPPKLLIYGASNLASGVPSRFKGSGSGTDFTLTISSLQPEDFATYYCQNNYGIIAAGATFGGGTKVEIKRTVAAPSVFIFPPSDEQLKSGTASVVCLLNNFYPREAKVQWKVDNALQSGNSQESVTEQDSKDSTYSLSSTLTLSKADYEKHKVYACEVTHQGLSSPVTKSFNRGEC | 115 nM

These reach a lower Kd. Values come first.

Kd | Binder
42 nM | XENP41333 (LB_1001, 1+1 VLVH) (antibody) chain 1: EVQLLESGGGLVQPGGSLRLSCAVSGFSLSSYGVIWVRQAPGKGLEYVSWVSSGGSTNYASSVKGRFTISRDTSKNTVYLQMNSLRAEDTAVYFCARGATNSGTDIWGPGTLVTVSSASTKGPSVFPLAPSSKSTSGGTAALGCLVKDYFPEPVTVSWNSGALTSGVHTFPAVLQSSGLYSLSSVVTVPSSSLGTQTYICNVNHKPSDTKVDKKVEPKSCDKTHTCPPCPAPELLGGPSVFLFPPKPKDTLMISRTPEVTCVVVDVSHEDPEVKFNWYVDGVEVHNAKTKPREEEYNSTYRVVSVLTVLHQDWLNGKEYKCKVSNKALPAPIEKTISKAKGQPREPQVYTLPPSREEMTKNQVSLTCDVSGFYPSDIAVEWESDGQPENNYKTTPPVLDSDGSFFLYSKLTVDKSRWEQGDVFSCSVMHEALHNHYTQKSLSLSPGK chain 2: not shown chain 3: DIVMTQSPSSLSASVGDRVTITCRASQSINSWLSWYQQKPGKPPKLLIYGASNLASGVPSRFKGSGSGTDFTLTISSLQPEDFATYYCQNNYGIIAAGATFGGGTKVEIKRTVAAPSVFIFPPSDEQLKSGTASVVCLLNNFYPREAKVQWKVDNALQSGNSQESVTEQDSKDSTYSLSSTLTLSKADYEKHKVYACEVTHQGLSSPVTKSFNRGEC
28.9 nM | XENP41344 (1D7B4, mAb-scFv VLVH) (antibody) chain 1: EVQLLESGGGLVQPGGSLRLSCAVSGFSLSSYGVIWVRQAPGKGLEYVSWVSSGGSTNYASSVKGRFTISRDTSKNTVYLQMNSLRAEDTAVYFCARGATNSGTDIWGPGTLVTVSSASTKGPSVFPLAPSSKSTSGGTAALGCLVKDYFPEPVTVSWNSGALTSGVHTFPAVLQSSGLYSLSSVVTVPSSSLGTQTYICNVNHKPSDTKVDKKVEPKSCDKTHTCPPCPAPELLGGPSVFLFPPKPKDTLMISRTPEVTCVVVDVSHEDPEVKFNWYVDGVEVHNAKTKPREEEYNSTYRVVSVLTVLHQDWLNGKEYKCKVSNKALPAPIEKTISKAKGQPREPQVYTLPPSREEMTKNQVSLTCDVSGFYPSDIAVEWESDGQPENNYKTTPPVLDSDGSFFLYSKLTVDKSRWEQGDVFSCSVMHEALHNHYTQKSLSLSPGK chain 2: not shown chain 3: DIVMTQSPSSLSASVGDRVTITCRASQSINSWLSWYQQKPGKPPKLLIYGASNLASGVPSRFKGSGSGTDFTLTISSLQPEDFATYYCQNNYGIIAAGATFGGGTKVEIKRTVAAPSVFIFPPSDEQLKSGTASVVCLLNNFYPREAKVQWKVDNALQSGNSQESVTEQDSKDSTYSLSSTLTLSKADYEKHKVYACEVTHQGLSSPVTKSFNRGEC
7.72 nM | XENP40375 (1D7B4, 1+1 VHVL) (antibody) chain 1: EVQLLESGGGLVQPGGSLRLSCAVSGFSLSSYGVIWVRQAPGKGLEYVSWVSSGGSTNYASSVKGRFTISRDTSKNTVYLQMNSLRAEDTAVYFCARGATNSGTDIWGPGTLVTVSSASTKGPSVFPLAPSSKSTSGGTAALGCLVKDYFPEPVTVSWNSGALTSGVHTFPAVLQSSGLYSLSSVVTVPSSSLGTQTYICNVNHKPSDTKVDKKVEPKSCDKTHTCPPCPAPELLGGPSVFLFPPKPKDTLMISRTPEVTCVVVDVSHEDPEVKFNWYVDGVEVHNAKTKPREEEYNSTYRVVSVLTVLHQDWLNGKEYKCKVSNKALPAPIEKTISKAKGQPREPQVYTLPPSREEMTKNQVSLTCDVSGFYPSDIAVEWESDGQPENNYKTTPPVLDSDGSFFLYSKLTVDKSRWEQGDVFSCSVMHEALHNHYTQKSLSLSPGK chain 2: not shown chain 3: DIVMTQSPSSLSASVGDRVTITCRASQSINSWLSWYQQKPGKPPKLLIYGASNLASGVPSRFKGSGSGTDFTLTISSLQPEDFATYYCQNNYGIIAAGATFGGGTKVEIKRTVAAPSVFIFPPSDEQLKSGTASVVCLLNNFYPREAKVQWKVDNALQSGNSQESVTEQDSKDSTYSLSSTLTLSKADYEKHKVYACEVTHQGLSSPVTKSFNRGEC
